Columns and labels:
PlexinC1 (Homo sapiens) = PlexinC1 (Homo sapiens) (UniProt O60486); assay: Scatchard analysis; conditions: cited from earlier work
[1] = target: PlexinC1-SemaPSI (Sema domain plus the first PSI domain) (human) (UniProt O60486); assay: ITC
[2] = target: Sema7A, extracellular segment, glycan-trimmed (for crystallization) (human) (UniProt O75326); assay: crystal structure
[3] = target: Sema7A, extracellular segment, glycan-trimmed (for crystallization) (human) (UniProt O75326); assay: SEC
SEC + cross-linking = target: the molecule itself; assay: SEC + cross-linking

For Sema7A (from UniProt O75326), the Kd (PlexinC1 (Homo sapiens)) is listed as 2.1 nM.

Work on “Sema7A, entire extracellular segment excluding the GPI anchor (from UniProt O75326 45-648) (ligand)” yielded a Kd [1] of 290 nM and a dH [1] of -2 kcal/mol.

“Sema7A, extracellular segment, glycan-trimmed (for crystallization) (from UniProt O75326 45-648) (ligand)” showed a stoichiometry N [2] of 2 and a stoichiometry N [3] of 2.

B1: PlexinC1-ECD (entire extracellular segment) (receptor, human, UniProt O60486 35-944, looked up)
chain: ADEPVWRSEQAIGAIAASQEDGVFVASGSCLDQLDYSLEHSLSRLYRDQAGNCTEPVSLAPPARPRPGSSFSKLLLPYREGAAGLGGLLLTGWTFDRGACEVRPLGNLSRNSLRNGTEVVSCHPQGSTAGVVYRAGRNNRWYLAVAATYVLPEPETASRCNPAASDHDTAIALKDTEGRSLATQELGRLKLCEGAGSLHFVDAFLWNGSIYFPYYPYNYTSGAATGWPSMARIAQSTEVLFQGQASLDCGHGHPDGRRLLLSSSLVEALDVWAGVFSAAAGEGQERRSPTTTALCLFRMSEIQARAKRVSWDFKTAESHCKEGDQPERVQPIASSTLIHSDLTSVYGTVVMNRTVLFLGTGDGQLLKVILGENLTSNCPEVIYEIKEETPVFYKLVPDPVKNIYIYLTAGKEVRRIRVANCNKHKSCSECLTATDPHCGWCHSLQRCTFQGDCVHSENLENWLDISSGAKKCPKIQIIRSSKEKTTVTMVGSFSPRHSKCMVKNVDSSRELCQNKSQPNRTCTCSIPTRATYKDVSVVNVMFSFGSWNLSDRFNFTNCSSLKECPACVETGCAWCKSARRCIHPFTACDPSDYERNQEQCPVAVEKTSGGGRPKENKGNRTNQALQVFYIKSIEPQKVSTLGKSNVIVTGANFTRASNITMILKGTSTCDKDVIQVSHVLNDTHMKFSLPSSRKEMKDVCIQFDGGNCSSVGSLSYIALPHCSLIFPATTWISGGQNITMMGRNFDVIDNLIISHELKGNINVSEYCVATYCGFLAPSLKSSKVRTNVTVKLRVQDTYLDCGTLQYREDPRFTGYRVESEVDTELEVKIQKENDNFNISKKDIEITLFHGENGQLNCSFENITRNQDLTTILCKIKGIKTASTIANSSKKVRVKLGNLELYVEQESVPST
B1: binds (SEC + cross-linking).

Reference: publication PMC2936782 (Cell, 2010)
